Positions count from the first letter of the chain named.
What was measured:
Assay in all cases: cAMP activity assay (pCRE β-galactosidase reporter), transfected HEK293T cells
Type in all cases: cell-based
[1] = target: T1, RXFP1 F50A^ins (Homo sapiens, UniProt Q9HBX9, INS72A); settings: construct F50A^ins, ±s.e.m.
T1 construct: transiently transfected human embryonic kidney (HEK) 293T cells expressing full-length RXFP1 and mutants; expressed in transfected cells; host or cells: HEK293T
T1 sequence (Q9HBX9 with tags, fused parts or gaps INS72A limits assumed): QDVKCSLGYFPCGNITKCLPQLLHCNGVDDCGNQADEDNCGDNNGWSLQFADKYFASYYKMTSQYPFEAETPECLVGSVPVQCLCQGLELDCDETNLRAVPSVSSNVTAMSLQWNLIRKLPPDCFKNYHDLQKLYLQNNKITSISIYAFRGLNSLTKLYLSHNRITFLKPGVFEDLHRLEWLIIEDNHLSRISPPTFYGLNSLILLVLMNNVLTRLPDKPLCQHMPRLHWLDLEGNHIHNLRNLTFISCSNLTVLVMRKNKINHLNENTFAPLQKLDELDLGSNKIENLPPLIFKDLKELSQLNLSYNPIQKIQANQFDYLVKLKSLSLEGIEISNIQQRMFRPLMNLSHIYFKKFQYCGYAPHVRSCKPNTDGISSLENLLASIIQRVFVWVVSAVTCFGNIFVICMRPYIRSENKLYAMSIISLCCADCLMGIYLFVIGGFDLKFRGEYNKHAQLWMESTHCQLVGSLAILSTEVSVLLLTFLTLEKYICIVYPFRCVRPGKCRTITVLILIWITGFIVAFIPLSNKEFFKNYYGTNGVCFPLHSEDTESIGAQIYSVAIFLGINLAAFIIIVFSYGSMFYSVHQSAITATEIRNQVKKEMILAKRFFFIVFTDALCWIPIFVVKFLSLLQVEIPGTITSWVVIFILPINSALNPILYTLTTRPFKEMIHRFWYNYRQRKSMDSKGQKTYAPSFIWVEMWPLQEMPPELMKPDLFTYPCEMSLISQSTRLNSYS
Outline: (§1)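 Relaxin-stimulated cells go through overnight storage at −80 °C, two 10-min lysis steps at pH 8.0 with shaking, and chlorophenol red-β-D-galactopyranoside development. Output at 570 nm is scaled against the 5 μM Forskolin maximum.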

[2] = target: T2, RXFP1 N43A (Homo sapiens, UniProt Q9HBX9, N65A); settings: construct N43A, ±s.e.m.
T2 construct: transiently transfected human embryonic kidney (HEK) 293T cells expressing full-length RXFP1 and mutants; expressed in transfected cells; host or cells: HEK293T
T2 sequence (Q9HBX9 23-757 N65A limits assumed): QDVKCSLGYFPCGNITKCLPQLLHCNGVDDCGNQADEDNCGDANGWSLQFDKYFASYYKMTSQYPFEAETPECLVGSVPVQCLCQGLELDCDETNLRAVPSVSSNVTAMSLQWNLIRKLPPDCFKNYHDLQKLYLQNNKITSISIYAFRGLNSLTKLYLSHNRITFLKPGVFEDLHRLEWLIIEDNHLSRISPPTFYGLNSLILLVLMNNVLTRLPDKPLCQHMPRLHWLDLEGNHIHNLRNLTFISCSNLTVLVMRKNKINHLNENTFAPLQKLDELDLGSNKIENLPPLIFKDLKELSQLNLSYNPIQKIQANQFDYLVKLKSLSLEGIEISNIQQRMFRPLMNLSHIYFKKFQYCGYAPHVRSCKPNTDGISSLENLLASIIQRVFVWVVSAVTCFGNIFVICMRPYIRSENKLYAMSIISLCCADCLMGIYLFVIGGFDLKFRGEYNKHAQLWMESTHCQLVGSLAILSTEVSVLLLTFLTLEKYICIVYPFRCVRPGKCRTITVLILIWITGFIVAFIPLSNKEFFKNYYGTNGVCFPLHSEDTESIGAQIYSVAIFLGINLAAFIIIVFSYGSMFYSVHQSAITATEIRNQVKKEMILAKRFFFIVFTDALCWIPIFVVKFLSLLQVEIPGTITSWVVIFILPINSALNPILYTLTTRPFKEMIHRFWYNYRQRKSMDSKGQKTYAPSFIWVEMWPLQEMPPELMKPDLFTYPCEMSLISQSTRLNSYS
Outline: as §1

[3] = target: T3, RXFP1 N44A (Homo sapiens, UniProt Q9HBX9, N66A); settings: construct N44A, ±s.e.m.
T3 construct: transiently transfected human embryonic kidney (HEK) 293T cells expressing full-length RXFP1 and mutants; expressed in transfected cells; host or cells: HEK293T
T3 sequence (Q9HBX9 23-757 N66A limits assumed): T2 sequence (Q9HBX9 23-757 N65A limits assumed) with A43N, N44A
Outline: as §1

[4] = percentage of maximum response to 5 μM Forskolin

H2 relaxin: two-chain 6-kDa peptide hormone structurally related to insulin; recombinant human gene-2 H2 relaxin provided by Corthera
H2 relaxin pEC50 ([1]; cAMP reporter): 9.41±0.13 (3)
H2 relaxin Emax [1, 4]: 93.62±5.34 (3) %
H2 relaxin pEC50 ([2]; cAMP reporter): 9.06±0.48 (4)
H2 relaxin Emax [2, 4]: 120.23±7.81 (4) %
H2 relaxin pEC50 ([3]; cAMP reporter): 11.0±0.1 (4)
H2 relaxin Emax [3, 4]: 92.16±6.98 (4) %
